The source of these data is paper PMC13028475.

For orientation: stoichiometry N means the number of molecules, sites or subunits per partner or assembly.

For the assay, the target named is FPM13 (Francisella Periplasmic Metalloprotein, 13 kDa), native protein of Francisella novicida (Francisella novicida). In words: cryo-EM structure.

Substance “FPM13 (Francisella Periplasmic Metalloprotein, 13 kDa), native protein of Francisella novicida (natural protein)” came in with a stoichiometry N of 18.
